Experimental findings from patent US20090304746A1 are described below.

Where two headings read alike, the source gives them in different places.

For assay [1], the target named is HLA-A*0301 (human).
Assay [2] addresses HLA-A*0201 (human).
In assay [3] the target is HLA-A*1101 (human). Put plainly: competition with 125I-labeled standard peptide on purified HLA, gel filtration. (In general: In gel filtration, larger molecules generally elute earlier.)
Assay [4] concerns the target HLA-A*0301 (human). The description is as above.
Assay [5] addresses HLA-A*0301 (human). Put plainly: competition with 125I-labelled standard peptide on purified HLA, gel filtration.
For assay [6], the target named is HLA-A*1101 (human).
Assay [7] has as its target T1, HLA-DR9 (DRB1*0901) (human).
T1 chain 1: not shown
T1 chain 2: not shown
The experiment in a line: purified HLA-DR, inhibition of 125I standard peptide, gel filtration.

Assay [8] addresses T2, HLA-DR6w19 (DRB1*1302) (human).
T2 chain 1: not shown
T2 chain 2: not shown
Described as above.

The target in assay [9] is T3, HLA-DR8w2 (DRB1*0802) (human).
T3 chain 1: not shown
T3 chain 2: not shown
The description is as above.

Assay [10] has as its target T4, HLA-DR5w11 (DRB1*1101) (human).
T4 chain 1: not shown
T4 chain 2: not shown
The assay is described as above.

For assay [11], the target named is HLA-A*0201 (Human). The experiment in a line: competition with 125I-labelled probe peptide for purified HLA, gel filtration.
The target in assay [12] is HLA-A*0301 (human). This is another data set of the same source.
The target of assay [13] is HLA-A*1101 (human). This is another data set of the same source.
The target of another assay is HLA-B*5401 (Human). Put plainly: competition with 125I-labelled standard peptide for purified HLA, gel filtration.
The target of another assay is HLA-B*0702 (Human). Described as above.
Another assay deals with HLA-B*5101 (Human). The description is as above.
Assay [14] has as its target T5, HLA-DR7 (DRB1*0701) (human).
T5 chain 1: not shown
T5 chain 2: not shown

The target in another assay is HLA-B*5301 (Human). Put plainly: competition with 125I-labelled standard peptide for purified HLA, gel filtration.
For a further assay, the target named is HLA-B*3501 (Human). The assay is described as above.
For assay [15], the target named is HLA-A*0301 (human). The experiment in a line: competition with 125I-labelled standard peptide on purified HLA, gel filtration. This is another data set of the same source.
Assay [16] addresses T5, HLA-DR7 (DRB1*0701) (human). The experiment in a line: purified HLA-DR, inhibition of 125I standard peptide, gel filtration.
[17] abbreviates: remark: other sources report otherwise.

B1: … (HCV polyprotein position 52) (peptide)
peptide: TSERSQPRGR
modifications: not checked
On to B1, for which, in the assay with HLA-A*0301 (human) [1], the binding affinity ratio (IC50 of standard peptide / IC50 of test peptide) was 0.0003.

B2: HCV peptide … (HCV polyprotein position 1420) (peptide)
peptide: VAYYRGLDV
modifications: not checked
For the molecule B2, in the assay with HLA-A*0201 (human) [2], the binding affinity ratio (IC50 of standard peptide / IC50 of test peptide) is 0.0001.

B3: HCV peptide … (HCV polyprotein position 1939) (peptide)
peptide: YVPESDAAAR
modifications: not checked
Consider B3, for which the binding affinity ratio (IC50 of standard peptide / IC50 of test peptide) stood at 0.0001 with HLA-A*1101 (human) [3] and 0.0003 with HLA-A*0301 (human) [4].

B4: HCV peptide … (polyprotein position 109) (peptide)
peptide: PTDPRRRSR
modifications: not checked
Consider B4, for which the results for the binding affinity ratio (IC50 of standard peptide / IC50 of test peptide) in the assay with HLA-A*0301 (human) [5] and with HLA-A*1101 (human) [6] were 0.0008 and 0.0005, respectively.

B5: HCV peptide … (core …) (peptide)
peptide: LELITSCSSNVSVAH
modifications: not checked
In the case of B5, the relative binding (IC50 of standard peptide / IC50 of test peptide) in assay [7] came to 0.033; in [8], 0.051; in assay [9], 0.0003; in [10] it was 0.0008.

B6: HCV peptide … (polyprotein position 1591) (peptide)
peptide: LVAYQATVCA
modifications: not checked
On to B6, for which the binding affinity ratio (IC50 of standard peptide / IC50 of test peptide) with HLA-A*0201 (Human) [11] was 0.0002.

B7: HCV peptide … (HCV polyprotein position 96) (peptide)
peptide: WLLSPRGSR
modifications: not checked
Consider B7, for which the binding affinity ratio (IC50 of standard peptide / IC50 of test peptide) with HLA-A*1101 (human) [3] was 0.0005; with HLA-A*0301 (human) [4], 0.0008.

B8: HCV peptide … (polyprotein position 2612) (peptide)
peptide: LIVFPDLGVR
modifications: not checked
Consider B8, for which the binding affinity ratio (IC50 of standard peptide / IC50 of test peptide) with HLA-A*0301 (human) [12] turned out to be 0.0003.

B9: HCV peptide … (HCV polyprotein position 1622) (peptide)
peptide: TLHGPTPLL
modifications: not checked
Regarding B9, the binding affinity ratio (IC50 of standard peptide / IC50 of test peptide) with HLA-A*0201 (human) [2] was 0.007.

B10: … (HCV polyprotein position 2177) (peptide)
peptide: TSMLTDPSH
modifications: not checked
With B10, the binding affinity ratio (IC50 of standard peptide / IC50 of test peptide) with HLA-A*0301 (human) [1] stood at 0.0003.

B11: … (HCV polyprotein position 52, 10-mer) (peptide)
peptide: TSERSQPRGR
modifications: not checked
In the case of B11, in the assay with HLA-A*1101 (human) [13], the binding affinity ratio (IC50 of standard peptide / IC50 of test peptide) came out at 0.0001.

B12: … (peptide)
peptide: LPVCQDHLEF
modifications: not checked
For B12, the figures for the binding affinity ratio (IC50 standard/IC50 test) with HLA-B*5401 (Human) (setting [17]), in the assay with HLA-B*0702 (Human) (setting [17]) and with HLA-B*5101 (Human) (setting [17]) were 0.0003, 0.0001 and 0.0002, respectively.

B13: HCV peptide … (HCV polyprotein position 52) (peptide)
peptide: TSERSQPRGR
modifications: not checked
On to B13, for which the values for the binding affinity ratio (IC50 of standard peptide / IC50 of test peptide) with HLA-A*1101 (human) [3] and in the assay with HLA-A*0301 (human) [4] were 0.0001 and 0.0003, respectively.

B14: HCV peptide … (HCV polyprotein position 1592) (peptide)
peptide: VAYQATVCA
modifications: not checked
B14: the binding affinity ratio (IC50 of standard peptide / IC50 of test peptide) in the assay with HLA-A*0201 (human) [2] was found to be 0.0005.

B15: HCV NS5 2589 peptide 1283.51 (peptide)
peptide: TTIMAKNEVFCVQPE
modifications: not checked
Take B15: the binding affinity ratio (relative to standard peptide) in assay [14] (setting [17]) amounted to 0.0025.

B16: HCV peptide … (polyprotein position 1884) (peptide)
peptide: LVNLLPAIL
modifications: not checked
On to B16, for which the binding affinity ratio (IC50 of standard peptide / IC50 of test peptide) with HLA-A*0201 (Human) [11] turned out to be 0.0002.

B17: HCV peptide … (HCV polyprotein position 686) (peptide)
peptide: TLPALSTGL
modifications: not checked
On to B17, for which the binding affinity ratio (IC50 of standard peptide / IC50 of test peptide) with HLA-A*0201 (human) [2] stood at 0.0003.

B18: HCV peptide … (polyprotein position 516) (peptide)
peptide: PVVVGTTDR
modifications: not checked
Regarding B18, the binding affinity ratio (IC50 of standard peptide / IC50 of test peptide) with HLA-A*1101 (human) [6] came out at 0.0005; with HLA-A*0301 (human) [12] it was 0.0008.

B19: … (HCV polyprotein position 1568) (peptide)
peptide: TGLTHIDAH
modifications: not checked
Regarding B19, in the assay with HLA-A*0301 (human) [1], the binding affinity ratio (IC50 of standard peptide / IC50 of test peptide) is 0.0003.

B20: HCV peptide … (polyprotein position 1853) (peptide)
peptide: LVDILAGYGA
modifications: not checked
With B20, the binding affinity ratio (IC50 of standard peptide / IC50 of test peptide) in the assay with HLA-A*0201 (Human) [11] was -0.0001.

B21: HCV NS5 2243 peptide 1283.49 (peptide)
peptide: RQEMGGNITRVESEN
modifications: not checked
On to B21, for which the binding affinity ratio (relative to standard peptide) in [14] came out at 0.0002.

B22: HCV peptide … (polyprotein position 1887) (peptide)
peptide: LLPAILSPGA
modifications: not checked
For the molecule B22, in the assay with HLA-A*0201 (Human) [11], the binding affinity ratio (IC50 of standard peptide / IC50 of test peptide) was 0.0061.

B23: … (peptide)
peptide: QPEYDLELI
modifications: not checked
As to B23, the binding affinity ratio (IC50 standard/IC50 test) was determined as 0.0001 in the assay with HLA-B*5301 (Human); 0.0002 with HLA-B*5401 (Human); 0.0002 with HLA-B*3501 (Human); 0.0001 with HLA-B*0702 (Human); 0.0002 with HLA-B*5101 (Human).

B24: … (peptide)
peptide: NPSVAATLGF
modifications: not checked
As to B24, the binding affinity ratio (IC50 standard/IC50 test) with HLA-B*5301 (Human) is 0.0001; in the assay with HLA-B*5401 (Human) it was 0.0003; with HLA-B*3501 (Human), 0.0001; with HLA-B*0702 (Human), 0.0001; in the assay with HLA-B*5101 (Human), 0.0002.

B25: … (peptide)
peptide: PPPSWDQMW
modifications: not checked
B25: the binding affinity ratio (IC50 standard/IC50 test) was 0.0001 with HLA-B*5301 (Human); 0.0002 with HLA-B*5401 (Human); 0.0002 with HLA-B*3501 (Human); 0.0001 with HLA-B*0702 (Human); 0.0001 in the assay with HLA-B*5101 (Human).

B26: HCV peptide … (core …) (peptide)
peptide: FTGLTHIDAHFLSQT
modifications: not checked
In the case of B26, the relative binding (IC50 of standard peptide / IC50 of test peptide) in assay [7] worked out at 0.0056; in assay [8], 0.0002; in assay [9], 0.05; in assay [10], 0.0083.

B27: HCV peptide … (polyprotein position 1925) (peptide)
peptide: IAFASRGNH
modifications: not checked
On to B27, for which, in the assay with HLA-A*0301 (human) [15], the binding affinity ratio (IC50 of standard peptide / IC50 of test peptide) was determined as 0.0003.

B28: HCV peptide … (core …) (peptide)
peptide: VYCFTPSPVVVGTTD
modifications: not checked
As to B28, the relative binding (IC50 of standard peptide / IC50 of test peptide) came out at 0.18 in [7], 0.0001 in [8], 0.074 in assay [16] and 0.0056 in assay [10].

B29: … (HCV polyprotein position 1592) (peptide)
peptide: VAYQATVCAR
modifications: not checked
Take B29: the binding affinity ratio (IC50 of standard peptide / IC50 of test peptide) in the assay with HLA-A*0301 (human) [1] was 0.0005.

B30: … (HCV polyprotein position 1592, 10-mer) (peptide)
peptide: VAYQATVCAR
modifications: not checked
As to B30, the binding affinity ratio (IC50 of standard peptide / IC50 of test peptide) with HLA-A*1101 (human) [13] was determined as 0.0038.

B31: HCV peptide … (HCV polyprotein position 35) (peptide)
peptide: YLLPRRGPR
modifications: not checked
As for B31, the binding affinity ratio (IC50 of standard peptide / IC50 of test peptide) worked out at 0.0005 in the assay with HLA-A*1101 (human) [3] (setting [17]) and 0.0054 in the assay with HLA-A*0301 (human) [4] (setting [17]).

B32: … (peptide)
peptide: QPGYPWPLY
modifications: not checked
On to B32, for which the binding affinity ratio (IC50 standard/IC50 test) was determined as 0.0001 with HLA-B*5301 (Human), 0.0002 in the assay with HLA-B*5401 (Human), 0.0001 in the assay with HLA-B*0702 (Human) and 0.0002 in the assay with HLA-B*5101 (Human).

B33: HCV peptide … (polyprotein position 2612) (peptide)
peptide: LIVFPDLGV
modifications: not checked
As for B33, the binding affinity ratio (IC50 of standard peptide / IC50 of test peptide) in the assay with HLA-A*0201 (Human) [11] turned out to be 0.0002.

B34: HCV peptide … (polyprotein position 2207) (peptide)
peptide: SASQLSAPSLK
modifications: not checked
As to B34, the binding affinity ratio (IC50 of standard peptide / IC50 of test peptide) in the assay with HLA-A*1101 (human) [6] was 0.0044; in the assay with HLA-A*0301 (human) [12], 0.0003.

B35: … (HCV polyprotein position 2177, 9-mer) (peptide)
peptide: TSMLTDPSH
modifications: not checked
With B35, in the assay with HLA-A*1101 (human) [13], the binding affinity ratio (IC50 of standard peptide / IC50 of test peptide) came out at 0.0001.

B36: … (HCV polyprotein position 1568, 9-mer) (peptide)
peptide: TGLTHIDAH
modifications: not checked
Take B36: the binding affinity ratio (IC50 of standard peptide / IC50 of test peptide) with HLA-A*1101 (human) [13] is 0.0001.
